US20090022659A1 (ALDERBIO, published 2009)
Substitutions are numbered along the chain they refer to.

B1: anti-TNF-α antibody Ab13 (antibody, V domains shown)
VH: QSVEESGGRLVTPGTPLTLTCTVSGIDLSSYAMGWVRQAPGKGLEYIGYILSSGITYYASWARGRFTISKTSSTTVDLKMTSLTTEDTATYFCARNGNYNSGTDI
VL: ADIVMTQTPASVSEPVGGTVTIKCQASQNIYSTLAWYQQKPGQPPKLLIYLASTLASGVPSRFKGSGSGTQFTLTISDLECADAATYYCQTSHGSNSDSFGYA
B2: anti-TNF-α antibody Ab17 (antibody, V domains shown)
VH: B1 VH with V3L, T15G, P16S, I50V, S52G, A94V, G97D
VL: B1 VL with N29S, Y50S, S92N
B3: anti-TNF-α antibody Ab14 (antibody, V domains shown)
VH: B1 VH with I26F, D27S, L51G, A59T, T71P
VL: B1 VL with S92N
B4: anti-TNF-α antibody Ab18 (antibody, V domains shown)
VH: B1 VH with A94V, S101V
VL: B1 VL with A56E, Q71E, D98E
B5: anti-TNF-α antibody Ab6 (antibody, V domains shown)
VH: METGLRWLLLVAVFKGVQCQSVEESGGRLVTPGTPLTLTCTVSGFSLSSNTISWVRQAPGKGLEWIGYIWRGVSTYYATWAKGRFTISKTSSTTVDLKITGPTTEDTATYFCARDAGDGGGYSLDL
VL: MDTRAPTQLLGLLLLWLPDARCAYDMTQTPASVEVAGGGTVTIKCQASQSIANRLAWYQQKPGQPPKLLIYYASTLASGVPSRFSGSGSGTEFTLTISGVQCDDAATYYCQQTYSDNNVDNA
B6: anti-TNF-α antibody Ab2 (antibody, V domains shown)
VH: QSVEESGGRLVTPGTPLTLTCSVSGFSLNNYVMGWVRQAPGKGLEFIGYIAFGIGPYYASWAKGRFTISSTSSTTVDLKMTSLTPEDTATYFCARGDYSGNDI
VL: ADIVMTQTPSSVSEPVRGTVTIKCQASQNIYSYLSWYQQSPGQPPKLLIYKASTLASGVPSRFKGSGSGTDFTLTISDLECADAATYYCQSNYGSDSDSFGNA
B7: anti-TNF-α antibody Ab16 (antibody, V domains shown)
VH: QSLEESGGRLVKPDETLTITCTVSGIDLNNYNMGWVRQAPGKGLEYIGYILGSGITYYATWAKGRFTISKTSSTTVDLKMTSLTTEDTATYFCAGSIYYRGYGMDP
VL: B1 VL with N29T, T33S, A35S, P44R, L51A, Q71D, T91S, S92N, F100Y, Y102N
B8: anti-TNF-α antibody Ab19 (antibody, V domains shown)
VH: B6 VH with V32I, I68S, Y98V
VL: B6 VL with Q38R, K46N, D96N
B9: anti-TNF-α antibody Ab8 (antibody, V domains shown)
VH: B6 VH with S22T, V23A, N29S, S60T, T67S, K79T, D102N
VL: B6 VL with R17G, K23M, S40K, K64A, D96N
B10: anti-TNF-α antibody Ab3 (antibody, V domains shown)
VH: QSVEESGGRLVTPGTPLTLTCKVSGFSLSSYDMTWVRQAPGKGLEWIGYIWNDGSTAYASWATGRFTISKTSTTVDLKIASPTTEDTATYFCARGPVFATTLGYYFTI
VL: MDTRAPTQLLGLLLLWLPGSTFAIKVTQTPASVSAAVGGTVSINCQASEDIESYLAWYQQKPGQPPKLLLYDASALASGVPSRFKGSGSGTEYTLTISGVECADAATYYCQQGYSYSNVDNS
B11: anti-TNF-α antibody Ab9 (antibody, V domains shown)
VH: QSVEESGGRLVTPGTPLTLTCTVSGFSLSIYWMTWVRQAPGKGLEWIGVISTDGSAYYATWAKGRFTISKTSSTTVDLRITSPTTEDTATYFCAGGGGMDP
VL: AQVLTQTPSSVSAAVGGTVTVSCQSSQNVYNNNDFVWFQQKPGQPPKRLIYWASTLASGVPSRFKGSGSGTQFTLTINDLECDDAATYYCAGAYITELRT
B12: anti-TNF-α antibody Ab11 (antibody, V domains shown)
VH: B11 VH with S51A, T52S, A56T, T60S, T71A, R79K, T81A, T85I
VL: AQVMTQTPASVSAAVGGTVTISCQSSESVYNNNDLIWFRQKPGQPPKRLIYWASQLASGVSSRFKGSGSGTQFTLTINDLECDDAATYYCAGAYDSEIRA
B13: anti-TNF-α antibody Ab5 (antibody, V domains shown)
VH: B11 VH with T22A, I30V, V49T, S55I, A56T, Y57V, T75A, R79K, I80L
VL: MDTRAPTQLLGLLLLWLPGATLAQVVTQTPASVSAAVGGTVTISCQSSQNVYNNNDLVWFQQKPGQPPKRLVYWASTLASGVSSRFRGSGSGTQFILTISDLQCDDAATYYCAGAYDSEIRA
B14: anti-TNF-α antibody Ab10 (antibody, V domains shown)
VH: B11 VH with K42R, S55T, A56T, T60N, T71A
VL: B12 VL with M4L, P8A, A9S, E27Q, L35F, R39Q, Q55T, T87V, I98V
B15: anti-TNF-α antibody Ab4 (antibody, V domains shown)
VH: QSVEESGGRLVTPGTPLTLTCTVSGLSLSTETINWVRQAPGKGLEWIGYIDSSGGTGYANWARGRFTISKTSTTVDLKITSPTTGDTATYFCARGTITTGMNI
VL: MDTRAPTQLLGLLLLWLTGATFAAVLTQTPSPVSAVVGGTVSISCQSSKRVVNSVALSWYQQKPGRSPKLLIYFASKLASGVPSRFKGSGSGTQFTLAISDVQCDDAATYYCAGHYTDSGDDA
B16: anti-TNF-α antibody Ab15 (antibody, V domains shown)
VH: QSVEESGGRLVSPGTPLTLTCTVSGIDLSSYGMGWVRQAPGKGLEYIGYMIASGITYYAAWAKGRFTISKTSSTTVDLKITSPTTEDTATYFCARNYYGMDP
VL: ADIVMTQTPASVSEPVGGTVTIKCQASQSIYSSFSWYQQIPGQRPKLLIYYASTLASGVPSRFSGSGSGTDFTLTISDLECADAATYYCQSNHGSNGDSFGNA
B17: anti-TNF-α antibody Ab1 (antibody, V domains shown)
VH: QSVEESGGRLVTPGTPLTLTCTVSGFSLSTYNMGWVRQAPGKGLEYIGYVLGSGITYYASWAKGRFTISKTSTTVDLEITSPTTEDTATYFCARDAGGRASL
VL: ADIVMTQTPASVEAAVGGTVTIKCQASQNIRSWLAWYQQKPGQPPKLLIYGASTLASGVPSRFQGSGSGTEYTLTIIDLDCADAATYYCQSNYGSNDNSYGNG
notes: Rabbit-derived; they start with the leader peptide and end at CDR3 (no framework 4); no cleavage site is stated for this antibody
B18: anti-TNF-α antibody Ab7 (antibody, V domains shown)
VH: QSVEESGGRLVTPGTPLTLTCTVSGFSLSSDNMGWVRQAPGKGLEYIGYITYGGFTYYATWAKGRFTISKTSTTVDLKMTSPTTEDTATYFCAREAGGRANV
VL: B17 VL with K23N, N29S, R31V, Q64K, I77S, D80E, D97S, N98H, Y100F, G103T
B19: anti-TNF-α antibody Ab12 (antibody, V domains shown)
VH: QSVEESGGRLVTPGTPLTLTCTVSGFSLSHYAMGWVRQAPGKGLEWIGIISSNGVTYYATWASGRFTISKTSTTVDLKITSPTTEDTATYFCARGDDTSIIYYIYAFDL
VL: ALVMTQTPSPVSAAVGGTVTISCQSSESVVFNNRLSWYQQKPGQPPKLLIYWASTLASGVPSRFKGSGSGTQFTLTISGVECDDAATYYCAGYKSYSNDDFA

Tests used:
[1] = molecular target: T1, Tumor Necrosis Factor-alpha (TNF-α), R&D systems 210-TA / 210-TA-CF (human, UniProt P01375 77-233); test: biolayer interferometry (Octet QK); biotinylated TNF-α on streptavidin sensor, antibody 8 nM to 1 nM
T1 construct: Bought protein; also called huTNF-α
T1 sequence (P01375 77-233 limits assumed): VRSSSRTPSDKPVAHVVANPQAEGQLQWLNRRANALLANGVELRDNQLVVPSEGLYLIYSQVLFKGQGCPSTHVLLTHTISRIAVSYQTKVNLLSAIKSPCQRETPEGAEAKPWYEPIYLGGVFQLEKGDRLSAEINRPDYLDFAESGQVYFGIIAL
Method: Binding kinetics of certain Anti-TNF-α antibodies referenced in this experiment were determined using biolayer Interferometry on an Octet QK instrument (ForteBio, Menlo Park, Calif.). Biotinylated TNF-α (R&D systems part number 210-TA, biotinylated using Pierce EZ-link sulfo-NHS-LC-LC-biotin product number 21338 according to manufacturer's protocols) was initially bound onto a streptavidin coated biosensor (ForteBio, Menlo Park, Calif. part number 18-5006). TNF-α coated sensors were then incubated with the Anti-TNF-α antibodies at concentrations ranging from 8 nM to 1 nM. Binding was monitored as an increase in signal over a period of 900 seconds.
Sensors removed from the antibody dilutions and immediately incubated in diluent were monitored for a dissociation phase over an 1800 second time period. For these studies, all proteins were diluted using ForteBio's sample diluent buffer (ForteBio, Menlo Park, Calif. part number 18-5028). Analysis of Kinetic data was performed using ForteBio Software utilizing full dissociation modeling.

[2] = molecular target: T1, Tumor Necrosis Factor-alpha (TNF-α), …; test: OD versus antibody concentration; the assay is not named for this figure (legend: binding affinity of the anti-TNF-α antibody Ab1)
[3] = molecular target: T1, Tumor Necrosis Factor-alpha (TNF-α), …; test: cell-based or functional assay
[4] = molecular target: T1, Tumor Necrosis Factor-alpha (TNF-α), …; test: OD versus antibody concentration, fitted sigmoid; the assay is not named for this figure (legend: binding affinity of the anti-TNF-α antibody Ab1); the unit is that of the concentration axis, none stands beside the number

Binder	Kd [1] [nM]	further results
B1	0.01 to 0.05	
B2	0.01	
B3	0.01	
B4	0.01	
B5	0.01	
B6	0.01	
B7	0.01	
B8	0.06	
B9	0.01	
B10	0.02 to 0.04	
B11	0.025 to 0.05	
B12	0.02	
B13	0.025 to 0.05	
B14	0.015 to 0.03	
B15	0.01	
B16	0.01	
B17	0.01	EC50 (read off the curve) [2]: ~0.05 µg/mL; EC50 (read off the curve); OD versus antibody concentration (the assay is not named for this figure) [3]: ~0.0006 µg/mL; EC50 [4]: 0.0461 µg/mL
B18	0.01	
B19	0.01 to 0.025	
